# T1: amphyphisin SH3 (AMPH_HUMAN), P49418
# T1 chain: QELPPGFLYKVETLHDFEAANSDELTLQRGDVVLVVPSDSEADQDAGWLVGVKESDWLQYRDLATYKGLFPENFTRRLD
# B1: Q96E32 219-233 (peptide)
# chain: FSSVPSKPPMSLEP
# B2: Q07954 3693-3706 (peptide)
# chain: FVSPPNRPFRSKND
# B3: Q9BWN1 26-39 (peptide)
# chain: GARSPKRPRLQLPG
# B4: P35568 971-984 (peptide)
# chain: GAASISRPTRAVPS
# B5: O15417 267-280 (peptide)
# chain: GAKGPRRPGEEAEL
# B6: O75055 1510-1524 (peptide)
# chain: FVLVPLRPPSPARS
# B7: P33076 484-497 (peptide)
# chain: FSHILKRPDRVLLI
# B8: O76081 86-99 (peptide)
# chain: FSHLLRRPPPEAPR
# B9: Q9HB63 378-391 (peptide)
# chain: FYRDLRRPFSAPDA
# B10: Q9C093 551-564 (peptide)
# chain: FQEFLKRPDHKQDF
# B11: Q9BYB0 718-731 (peptide)
# chain: GAPGPRRPFQQKPL
# B12: P17752 389-402 (peptide)
# chain: FTKTIKRPFGVKYN
# B13: P34925 3-16 (peptide)
# chain: GAARLGRPGRSSLP
# B14: Q9UBW7 1125-1138 (peptide)
# chain: FVNEIRRPNGENYA
# B15: Q14539 22-35 (peptide)
# chain: FVLRPLRPSRRYST
# B16: P32745 324-337 (peptide)
# chain: FRRVLLRPSRRVRS
# B17: Q9NXF8 292-305 (peptide)
# chain: FRRLPTRPRKGGPE
# B18: Q9NQ75 154-167 (peptide)
# chain: AILTLPRPVRASLP
# B19: Q96AA2 6283-6296 (peptide)
# chain: GAGQPRRPEAEPGQ
# B20: Q9Y384 121-134 (peptide)
# chain: FSESLKRPWEDDPP
# B21: Q99995 108-121 (peptide)
# chain: FPTVPTRPEKGYIW
# B22: Q9HA08 198-211 (peptide)
# chain: AKINLKRPPTAGSQ
# B23: Q9Y6N3 202-215 (peptide)
# chain: GASSIARPFRRDSQ
# B24: Q9UHP3 379-392 (peptide)
# chain: FNQALGRPEKIHNK
# B25: P11171 83-96 (peptide)
# chain: FSSFLKRPKSQVSE
# B26: Q9H3T7 733-747 (peptide)
# chain: FWQSPKRPPSPIKF
# B27: O60560 190-203 (peptide)
# chain: GAFQPGRPLRVVAT
# B28: Q9Y4B7 288-301 (peptide)
# chain: FRGSFRRPDNLSLA
# B29: O00538 575-588 (peptide)
# chain: FSFSLPRPGRRGSR
# B30: Q9NQ90 781-794 (peptide)
# chain: FVTELRRPDAVRTK
# B31: O43365 212-225 (peptide)
# chain: FNRYLSRPRRVEMA
# B32: Q9UHX5 114-127 (peptide)
# chain: GALHPPRPGRGLGQ
# B33: Q14289 851-865 (peptide)
# chain: FTGPPQKPPRLGAQ
# B34: Q9NUW7 10-23 (peptide)
# chain: FVYNFIRPVKGKVS
# B35: BAC04581 11-25 (peptide)
# chain: GAGSPARPPSPRLD
# B36: Q9NW72 376-389 (peptide)
# chain: FVTELRRPVAVRAK
# B37: CAD39032 203-217 (peptide)
# chain: AKLFPGRPPVKKLL
# B38: P46527 86-100 (peptide)
# chain: FYYRPPRPPKGASK
# B39: Q9NYR0 415-428 (peptide)
# chain: GALPPRRPERPVGP
# B40: O75077 489-502 (peptide)
# chain: GASLFNRPTKLFEP
# B41: Q9BZW5 208-221 (peptide)
# chain: AKDLLRRPFDLMLV
# B42: Q96QH2 75-89 (peptide)
# chain: FTDLPKKPPPPEVT
# Biological target: endophilin SH3 (SH3G2_HUMAN), Q99962
# Assay: SPOT array
row,"normalised SPOT signal, Boehringer light units (BLU); mean over the file's lines of this peptide",Binder
1,35.9,B1
2,224,B2
3,1210,B3
4,202,B4
5,39.5,B5
6,17300,B6
7,292,B7
8,5220,B8
9,175,B9
10,32.9,B10
11,2000,B11
12,61.9,B12
13,129,B13
14,12.8,B14
15,18800,B15
16,889,B16
17,1540,B17
18,1390,B18
19,-0,B19
20,35.3,B20
21,425,B21

row,"normalised SPOT signal, Boehringer light units (BLU); mean over the file's lines of this peptide",Binder
1,59,B22
2,120,B23
3,100,B24
4,51.3,B25
5,12400,B26
6,148,B27
7,109,B28
8,2080,B29
9,43.1,B30
10,204,B31
11,78.6,B32
12,76.1,B33
13,122,B34
14,15300,B35
15,117,B36
16,13400,B37
17,4600,B38
18,13800,B39
19,66.2,B40
20,71.1,B41
21,59.2,B42

# Biological target: T1, amphyphisin SH3 (AMPH_HUMAN), P49418
# Assay: SPOT array
row,"normalised SPOT signal, Boehringer light units (BLU); mean over the file's lines of this peptide",Binder
1,30.1,B1
2,3720,B2
3,18.6,B3
4,957,B4
5,0,B5
6,1620,B6
7,879,B7
8,172,B8
9,53.3,B9
10,32.9,B10
11,6.3,B11
12,22.4,B12
13,129,B13
14,23.8,B14
15,10100,B15
16,5790,B16
17,340,B17
18,402,B18
19,10.5,B19
20,58.5,B20
21,562,B21

row,"normalised SPOT signal, Boehringer light units (BLU); mean over the file's lines of this peptide",Binder
1,0,B22
2,671,B23
3,92,B24
4,37.5,B25
5,349,B26
6,1260,B27
7,74.9,B28
8,1090,B29
9,38.2,B30
10,336,B31
11,441,B32
12,2710,B33
13,190,B34
14,339,B35
15,39.9,B36
16,93.5,B37
17,3820,B38
18,3480,B39
19,59.5,B40
20,31.3,B41
21,88,B42
